From US20230258640

Target: T1, TCPP-labelled peptide cleavage sequence for MMP-1 (GAGVPMS-MRGGAG) tethered to carboxygraphene-polyethylenimine
T1 chain: GAGVPMSMRGGAG

B1: Matrix-Metalloproteinase-1 (protein)
chain: FVLTEGNPRWEQTHLTYRIENYTPDLPRADVDHAIEKAFQLWSNVTPLTFTKVSEGQADIMISFVRGDHRDNSPFDGPGGNLAHAFQPGPGIGGDAHFDEDERWTNNFREYNLHRVAAHELGHSLGLSHSTDIGALMYPSYTFSGDVQLAQDDIDGIQAIYGRSQNPVQPIGPQTPKACDSKLTFDAITTIRGEVMFFKDRFYMRTNPFYPEVELNFISVFWPQLPNGLEAAYEFADRDEVRFFKGNKYWAVQGQNVLHGYPKDIYSSFGFPRTVKHIDAALSEENTGKTYFFVANKYWRYDEYKRSMDPGYPKMIAHDFPGIGHKVDAVFMKDGFFYFFHGTRQYKFDPKTKRILTLQKANSWFNCRKN
- estimated limit of detection (LOD): femtomolar protease activities can be detected
- fluorescence signal of released TCPP after 60 min incubation at 37 C: the intensity of the detected signal is proportional to concentration of enzyme
